Source: article PMC5749897 (PLoS Pathogens, 2017)

Target: T1, wild-type HCV E1E2 (genotype 1a, strain H77) expression construct with C-terminal V5 epitope tag (Hepatitis C virus genotype 1a, strain …, strain)
T1 construct: also called wild-type E1E2; E1E2 complex; source: HEK-293T, transfected, in fixed and permeabilised cells; not shown: V5, C-terminal, kept
Experiment: flow cytometry on cells; E1E2 library clones in HEK-293T, 22 h, fixed in 4% paraformaldehyde, permeabilised with 0.1% saponin; stained with mAb (0.33 to 2.0 ug/ml) or CD81-LEL-Fc, Alexa Fluor 488 secondary antibody; Intellicyt HTFC; signal as percent of wild-type E1E2 after subtraction of mock
Conditions: one partner purified

B1: monoclonal antibody AR3C (antibody, V domains shown)
VH: VQLLEQSGAEVKKPGSSVKVSCETSGGTFDNYALNWVRQAPGQGLEWIGGVVPLFGTTRNAQKFQGRVTISDDKSTGTGHMELRSLRSEDTAVYYCVRSVTPRYCGGGFCYGEFDYWGQGTLVTVSS
VL: EIELTQSPATLSVSPGERATLSCRASQSVSSNLAWYQQKPGQAPRLLIYGASTRATGIPARFSGSGSGTEFTLTVSRLEPEDSAVYFCQQYYRSPLTFGGGTKVEIK
notes: also called mAb AR3C
  binding result: binds
